Experimental findings from patent US20180043006A1 (UNIVERSITY OF VIRGINIA PATENT FOUNDATION, published 2018) are described below.

In assay [1] the target is T1, HLA-DR molecule DRB1*0101 (human).
T1 construct: Used as a PE-conjugated peptide/MHCII tetramer assembled by a cited method
The assay can be described thus: peptide displayed on HLA-DR tetramer (TGEM).

The target in assay [2] is T2, HLA-DR molecule DRB1*0401 (human).
T2 construct: Used as a PE-conjugated peptide/MHCII tetramer assembled by a cited method
In words: peptide displayed on HLA-DR tetramer, ex vivo staining.

The target in assay [3] is T2, HLA-DR molecule DRB1*0401. In words: peptide displayed on HLA-DR tetramer, ex vivo staining of PBMCs.
Text: Biologically relevant pMHCII complexes were identified by tetramer-guided epitope mapping (TGEM). This involved 2 steps: First, PBMC cultures established from subjects with known HLA-DR types were stimulated with RV peptide pools derived from VP1, VP2, or VP4, and then stained with pMHCII tetramer pools composed of HLA-DR molecules corresponding to those expressed in the test subject; Second, positive signals were de-convoluted by repeating and staining with single-peptide tetramers.
All experiments were performed in subjects expressing HLA-DR molecules corresponding to the selected tetramer. Precursor frequencies of circulating tetramer+ cells were then calculated by established methods [43]. Tetramer+ cells were phenotyped for surface markers by staining PBMCs with PE-conjugated tetramers, labeling with anti-PE magnetic beads, enriching with an AutoMACS separator (Miltenyi Biotec, Auburn, Calif., USA), and then counterstaining for surface markers. […] For simplicity, identified RV-A16 peptide epitopes were given a numerical designation.
For assay [4], the target named is T3, HLA-DR molecule DRB1*0701 (human).
T3 construct: Used as a PE-conjugated peptide/MHCII tetramer assembled by a cited method
In words: peptide displayed on HLA-DR tetramer (TGEM).

In the case of PHQFINLRSNNSATLIVPYV [RV-A16 VP2P24 peptide epitope], the binding result in assay [1] is listed as “binds”.

B1: RV-A39 VP2169-188 peptide epitope (peptide)
peptide: SDDNWLNFDGTLLGNLLIFP
notes: Residues 169-188 of RV-A39 VP2; also called RV-A39 VP2 peptide
Turning to B1, in assay [2], the binding result is “binds”.

B2: RV-A16 VP2P21 peptide epitope (peptide)
peptide: NEKQPSDDNWLNFDGTLLGN
notes: 20mer from the overlapping RV-A16 VP2 peptide library, loaded on HLA-DR tetramers
With B2, the binding result in assay [3] is “binds”.

B3: RV-A16 VP1P23 peptide epitope (peptide)
peptide: PRFSLPFLSIASAYYMFYDG
notes: 20mer from the overlapping RV-A16 VP1 peptide library, loaded on HLA-DR tetramers
Consider B3, for which the binding result in assay [4] and in assay [1] was “binds” throughout. On to AQVRRKFEMFTYVRFDSEIT [RV-A39 VP1105-124 peptide epitope], for which, in assay [2], the binding result is “binds”.
